The results in this text go back to US20260022195A1.

This experiment has as its target T1, human C1s (active form) (human) (UniProt P09871).
T1 sequence 1: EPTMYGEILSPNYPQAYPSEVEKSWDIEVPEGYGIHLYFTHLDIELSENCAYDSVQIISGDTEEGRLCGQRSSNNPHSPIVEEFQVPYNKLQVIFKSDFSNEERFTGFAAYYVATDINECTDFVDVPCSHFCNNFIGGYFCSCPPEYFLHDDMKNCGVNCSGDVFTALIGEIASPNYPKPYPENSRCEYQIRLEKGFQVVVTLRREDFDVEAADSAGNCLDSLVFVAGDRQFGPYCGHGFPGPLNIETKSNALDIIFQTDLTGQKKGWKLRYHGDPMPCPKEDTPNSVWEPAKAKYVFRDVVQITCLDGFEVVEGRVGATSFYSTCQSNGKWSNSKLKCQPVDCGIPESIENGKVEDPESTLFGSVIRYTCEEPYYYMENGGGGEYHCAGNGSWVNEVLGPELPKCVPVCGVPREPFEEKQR
T1 sequence 2: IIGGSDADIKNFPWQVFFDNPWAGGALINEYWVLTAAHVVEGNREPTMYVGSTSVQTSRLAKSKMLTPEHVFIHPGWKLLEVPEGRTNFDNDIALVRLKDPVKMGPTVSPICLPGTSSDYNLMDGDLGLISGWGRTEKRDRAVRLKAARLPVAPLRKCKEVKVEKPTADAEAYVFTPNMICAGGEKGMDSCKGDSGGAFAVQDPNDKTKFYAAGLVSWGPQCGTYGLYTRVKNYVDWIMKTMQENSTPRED
Kind of experiment: cell-based or functional assay.

B1: TNT009 (antibody, from another filing, V domains shown)
VH: EVQLVESGGGLVKPGGSLRLSCAASGFTFSNYAMSWVRQAPGKGLEWVATISSGGSHTYYLDSVKGRFTISRDNSKNTLYLQMNSLRAEDTALYYCARLFTGYAMDYWGQGTLVTVSS
VL: QIVLTQSPATLSLSPGERATMSCTASSSVSSSYLHWYQQKPGKAPKLWIYSTSNLASGVPSRFSGSGSGTDYTLTISSLQPEDFATYYCHQYYRLPPITFGQGTKLEIKR
Regarding B1, the IC50 of inhibition of C3b deposition on antibody-sensitized human RBCs (flow cytometry, 5% human serum) came to 5 nM.

B2: TNT020 (antibody, from another filing, V domains shown)
VH: QVQLVQSGAEVKKPGASVKLSCTASGFNIKDDYIHWVKQAPGQGLEWIGRIDPADGHTKYAPKFQVKVTITADTSTSTAYLELSSLRSEDTAVYYCARYGYGREVFDYWGQGTTVTVSS
VL: DIVLTQSPDSLAVSLGERATISCKASQSVDYDGDSYMNWYQQKPGQPPKILIYDASNLESGIPARFSGSGSGTDFTLTISSLEPEDFAIYYCQQSNEDPWTFGGGTKVEIKR
As to B2, the IC50 of inhibition of C3b deposition on antibody-sensitized human RBCs (flow cytometry, 5% human serum) turned out to be 6.5 nM.
